In article PMC10815899 (2024):

Key:
[1] = molecular target: T1, epithelial adhesin 6 of N. glabratus (N. glabratus (endogenous), UniProt Q6FX55 1-715); assay: BLI
T1 chain: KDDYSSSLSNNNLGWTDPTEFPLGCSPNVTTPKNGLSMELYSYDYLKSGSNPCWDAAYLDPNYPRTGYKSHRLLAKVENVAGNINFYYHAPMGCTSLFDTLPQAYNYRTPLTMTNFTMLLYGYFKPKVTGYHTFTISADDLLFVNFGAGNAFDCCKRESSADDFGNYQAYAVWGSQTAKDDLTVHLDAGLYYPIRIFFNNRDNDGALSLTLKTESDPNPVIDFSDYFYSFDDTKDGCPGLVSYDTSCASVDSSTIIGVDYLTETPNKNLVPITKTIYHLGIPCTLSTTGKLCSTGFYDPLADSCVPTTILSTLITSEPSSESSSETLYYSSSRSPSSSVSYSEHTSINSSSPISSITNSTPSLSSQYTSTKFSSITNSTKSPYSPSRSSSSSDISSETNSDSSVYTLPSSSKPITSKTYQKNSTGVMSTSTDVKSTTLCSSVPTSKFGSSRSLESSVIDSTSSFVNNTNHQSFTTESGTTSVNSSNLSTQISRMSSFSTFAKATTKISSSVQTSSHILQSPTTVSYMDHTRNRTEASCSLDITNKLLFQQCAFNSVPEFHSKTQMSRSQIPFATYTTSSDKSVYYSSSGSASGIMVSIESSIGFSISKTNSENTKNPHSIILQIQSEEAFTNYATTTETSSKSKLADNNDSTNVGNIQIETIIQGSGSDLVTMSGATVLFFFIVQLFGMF

[2] = molecular target: T1, epithelial adhesin 6 of N. glabratus; assay: SPR
[3] = molecular target: T1, epithelial adhesin 6 of N. glabratus; assay: BLI

B1: cytoplasmic Nakaseomyces glabratus glyceraldehyde 3-phosphate dehydrogenase (enzyme)
chain: MVRIAINGFGRIGRLVLRVALSRSNIEVVAVNDPFITTDYAAYMFKYDSTHGRYAGEVTHDDKHIIIDGKKIAVHQERDPANLPWGSENIDIAIDSTGVFKELDTAQKHIDAGAKKVVITAPSSTAPMFVVGVNEDKYTSDLKIVSNASCTTNCLAPLAKVIDEAFGIEEGLMTTVHSLTATQKTVDGPSHKDWRGGRTASGNIIPSSTGAAKAVGKVLPQLQGKLTGMAFRVPTVDVSVVDLTVKLQKETTYDEIKKVIKQASEGKLKGVLGYTEDAVVSSDFLGDSRSSIFDASAGIQLSPKFVKLVSWYDNEYGYSTRVVDLVEHVAKN
modifications: biotin (NHS-biotin) in the microplate ligand-binding assays
koff [1]: 0.00195 s⁻¹ | koff [2]: 0.000209 s⁻¹ | Kd [3]: 6.89 nM
